# From PMC6650474, “Plasmodium myosin A drives parasite invasion by an atypical force generating mechanism” (Nature Communications, 2019)
# Changes are numbered by the printed parent chain. Names may count otherwise.
# B1: Full-length PfMyoA (Plasmodium falciparum myosin A) heavy chain, wild type, co-expressed with the light chains PfMTIP and PfELC (complex)
# chain 1: MAVTNEEIKTASKIVRRVSNVEAFDKSGSVFKGYQIWTDISPTIENDPNIMFVKCVVQQGSKKEKLTVVQIDPPGTGTPYDIDPTHAWNCNSQVDPMSFGDIGLLNHTNIPCVLDFLKHRYLKNQIYTTAVPLIVAINPYKDLGNTTNEWIRRYRDTADHTKLPPHVFTCAREALSNLHGVNKSQTIIVSGESGAGKTEATKQIMRYFASSKSGNMDLRIQTAIMAANPVLEAFGNAKTIRNNNSSRFGRFMQLVISHEGGIRYGSVVAFLLEKSRIITQDDNERSYHIFYQFLKGANSTMKSKFGLKGVTEYKLLNPNSTEVSGVDDVKDFEEVIESLKNMELSESDIEVIFSIVAGILTLGNVRLIEKQEAGLSDAAAIMDEDMGVFNKACELMYLDPELIKREILIKVTVAGGTKIEGRWNKNDAEVLKSSLCKAMYEKLFLWIIRHLNSRIEPEGGFKTFMGMLDIFGFEVFKNNSLEQLFINITNEMLQKNFVDIVFERESKLYKDEGISTAELKYTSNKEVINVLCEKGKSVLSYLEDQCLAPGGTDEKFVSSCATNLKENNKFTPAKVASNKNFIIQHTIGPIQYCAESFLLKNKDVLRGDLVEVIKDSPNPIVQQLFEGQVIEKGKIAKGSLIGSQFLNQLTSLMNLINSTEPHFIRCIKPNENKKPLEWCEPKILIQLHALSILEALVLRQLGYSYRRTFEEFLYQYKFVDIAAAEDSSVENQNKCVNILKLSGLSESMYKIGKSMVFLKQEGAKILTKIQREKLVEWENCVSVIEAAILKHKYKQKVNKNIPSLLRVQAHIRKKMVAQ
# chain 2: MKQECNVCYFNLPDPESTLGPYDNELNYFTWGPGFEYEPEPQRKPLSIEESFENSEESEESVADIQQLEEKVDESDVRIYFNEKSSGGKISIDNASYNARKLGLAPSSIDEKKIKELYGDNLTYEQYLEYLSICVHDKDNVEELIKMFAHFDNNCTGYLTKSQMKNILTTWGDALTDQEAIDALNAFSSEDNIDYKLFCEDILQ
# chain 3: MASDMEEKFREAFILFSSCSDHIEMYKFFELMNSFGIILTNDEKAALPNDINMDYWLNFAKKHYNYEQPFKHINNVNEQNTNVQIKIDNFLGIMKALDTRLTESDLNILLQITNPENKSTLNLKTVSQKLTESI
# modifications: phosphoserine at 19 (96 ± 1% of the peptides); biotin on the biotin carboxyl carrier protein segment
# B2: ΔN version of full-length PfMyoA heavy chain (residues Ala2 through Ser19 removed), co-expressed wit (complex)
# chain 1: MNVEAFDKSGSVFKGYQIWTDISPTIENDPNIMFVKCVVQQGSKKEKLTVVQIDPPGTGTPYDIDPTHAWNCNSQVDPMSFGDIGLLNHTNIPCVLDFLKHRYLKNQIYTTAVPLIVAINPYKDLGNTTNEWIRRYRDTADHTKLPPHVFTCAREALSNLHGVNKSQTIIVSGESGAGKTEATKQIMRYFASSKSGNMDLRIQTAIMAANPVLEAFGNAKTIRNNNSSRFGRFMQLVISHEGGIRYGSVVAFLLEKSRIITQDDNERSYHIFYQFLKGANSTMKSKFGLKGVTEYKLLNPNSTEVSGVDDVKDFEEVIESLKNMELSESDIEVIFSIVAGILTLGNVRLIEKQEAGLSDAAAIMDEDMGVFNKACELMYLDPELIKREILIKVTVAGGTKIEGRWNKNDAEVLKSSLCKAMYEKLFLWIIRHLNSRIEPEGGFKTFMGMLDIFGFEVFKNNSLEQLFINITNEMLQKNFVDIVFERESKLYKDEGISTAELKYTSNKEVINVLCEKGKSVLSYLEDQCLAPGGTDEKFVSSCATNLKENNKFTPAKVASNKNFIIQHTIGPIQYCAESFLLKNKDVLRGDLVEVIKDSPNPIVQQLFEGQVIEKGKIAKGSLIGSQFLNQLTSLMNLINSTEPHFIRCIKPNENKKPLEWCEPKILIQLHALSILEALVLRQLGYSYRRTFEEFLYQYKFVDIAAAEDSSVENQNKCVNILKLSGLSESMYKIGKSMVFLKQEGAKILTKIQREKLVEWENCVSVIEAAILKHKYKQKVNKNIPSLLRVQAHIRKKMVAQ
# chain 2: B1 chain 2
# chain 3: B1 chain 3
# modifications: biotin on the biotin carboxyl carrier protein segment
# B3: Full-length PfMyoA heavy chain K764E (charge reversal in the converter), co-expressed with the light chains PfMTIP and PfELC (complex)
# chain 1: B1 chain 1 with K764E
# chain 2: B1 chain 2
# chain 3: B1 chain 3
# modifications: biotin on the biotin carboxyl carrier protein segment
# B4: Full-length PfMyoA heavy chain S19A (phospho-null), co-expressed with the light chains PfMTIP and PfELC (complex)
# chain 1: B1 chain 1 with S19A
# chain 2: B1 chain 2
# chain 3: B1 chain 3
# modifications: biotin on the biotin carboxyl carrier protein segment
# Molecular target: Skeletal muscle actin (chicken, UniProt P68139 1-377)
# Test: cell-based or functional assay
row,Binder,"Km for skeletal actin of the actin-activated ATPase activity (Michaelis-Menten fit, 30 °C, 5 mM KCl) [µM]"
1,B1,30.3
2,B2,7.34
3,B3,18.2
4,B4,8.5
